Source: patent US20160024487A1 (Novo Nordisk, published 2016)
Where no end group is shown, it is not given here. The star is where a group is joined. Dnp = O=[N+]([O-])c1ccc(*)c([N+](=O)[O-])c1; 2Abz = Nc1ccccc1C(=O)O

Molecular target: Human plasma purified α-thrombin (human, UniProt P00734 328-622)
Assay: cell-based or functional assay

Fold-Improved (FpA): 1 fold
Fold-Improved (PAR-1): 0.1 fold
Binder: K(Dnp)DFLAEGGGVRIVGGK(2Abz) [Lys(Dnp)-DFLAEGGGVRIVGG-Lys(Abz)]
